{
  "source": "paper PMC7335187",
  "about": "“Super-assembly of ER-phagy receptor Atg40 induces local ER remodeling at contacts with forming autophagosomal membranes” (Nature Communications, 2020)",
  "binders": {"B1": {"name": "RTN3245-253 (Δhelix) peptide (peptide)", "peptide": "YESPFEVIID", "notes": "numbers count on: isoform e; also called RTN3245-253 WT (Δhelix); source: synthetic peptide"}, "B2": {"name": "RTN3245-264 peptide (peptide)", "peptide": "ESPFEVIIDKAAFDKEFKDSY", "notes": "numbers count on: isoform e; Tyr attached to the C terminus for quantification by absorbance at 280 nm; source: synthetic peptide"}, "B3": {"name": "Atg40^234–252 peptide (peptide, UniProt Q99325 234-252, looked up)", "peptide": "TSTEFPNDYDFMEDILDET", "notes": "Atg40, S. cerevisiae, residues 234-252; also called wild-type peptide; source: synthetic peptide (Liberty Blue peptide synthesizer), SEC"}, "B4": {"name": "SEC62361-368 (Δhelix) peptide (peptide)", "peptide": "NDFEMITKY", "notes": "SEC62, human, residues 361-368 (lacks the helix C-terminal to the AIM/LIR); Tyr attached to the C terminus for quantification by absorbance at 280 nm; also called Sec62361-368 WT (Δhelix); source: synthetic peptide (BEX Co., Ltd.), SEC"}, "B5": {"name": "Atg40-HA (natural protein, S. cerevisiae, UniProt Q99325 1-256, looked up)", "chain": "MFNLILWPLFLLTSVAIPLQLTLEVVYLTSSVDFSKASAAKTATSLGQSPVVITIYKSLLKYWSLYEFIHFIYLYTPIDAFLNFLPFTSLLMSFGSICLTRELVYDFIAFMESQNKLTGFLNKITEPNFNSYLLFSSIYNIWFADDTNDKFLFGKLTQILISVTKRYEFPRTFYLAKVSDFLQNLILTRLRPFVTEQPQGDKNRYQNGDRESTKNGAAYQKSSQQSSSFEQNFTSTEFPNDYDFMEDILDETTELD", "notes": "Atg40, ER-phagy receptor of S. cerevisiae; also called Atg40-FLAG; Atg40-GFP; source: S. cerevisiae cells treated with rapamycin, in lysate"}, "B6": {"name": "Atg40-6His (natural protein, S. cerevisiae, UniProt Q99325 1-256, looked up)", "chain": "B5 chain", "notes": "Atg40, S. cerevisiae; Atg40-6His is printed as 30.6 kDa; also called purified Atg40; source: S. cerevisiae BJ3505 (GPD promoter), purified from membranes in DDM (Ni-NTA, SEC)"}},
  "key": {"[1]": {"target": "T1, LC3A WT (UniProt Q9H492 1-121)", "assay": "ITC; peptide in the syringe (0.5 mM) titrated into 200 µl of the Atg8 homologue in the cell at a 10 times lower concentration; MicroCal iTC200, 25 °C, stirring at 1000 rpm; single-site binding model; N fixed to 1.0 when the fitting was not convergent due to weak interaction; errors are fitting errors", "conditions": "both partners purified"}, "[2]": {"target": "LC3C WT (UniProt Q9BXW4 1-126)", "sequence (Q9BXW4 1-126)": "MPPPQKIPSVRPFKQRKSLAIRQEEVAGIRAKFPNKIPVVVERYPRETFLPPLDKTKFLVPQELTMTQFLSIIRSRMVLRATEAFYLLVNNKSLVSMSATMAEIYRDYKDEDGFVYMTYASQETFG", "assay": "ITC; peptide in the syringe (0.5 mM) titrated into 200 µl of the Atg8 homologue in the cell at a 10 times lower concentration; MicroCal iTC200, 25 °C, stirring at 1000 rpm; single-site binding model; N fixed to 1.0 when the fitting was not convergent due to weak interaction; errors are fitting errors", "conditions": "both partners purified"}, "[3]": {"target": "T2, GABARAPL1 WT (UniProt Q9H0R8 1-117)", "T2 sequence (Q9H0R8 whole entry)": "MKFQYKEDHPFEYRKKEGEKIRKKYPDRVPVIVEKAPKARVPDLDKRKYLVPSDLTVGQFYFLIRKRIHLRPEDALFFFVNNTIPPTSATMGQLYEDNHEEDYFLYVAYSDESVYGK", "assay": "ITC; peptide in the syringe (0.5 mM) titrated into 200 µl of the Atg8 homologue in the cell at a 10 times lower concentration; MicroCal iTC200, 25 °C, stirring at 1000 rpm; single-site binding model; N fixed to 1.0 when the fitting was not convergent due to weak interaction; errors are fitting errors", "conditions": "both partners purified"}, "[4]": {"target": "T3, GABARAPL2 WT (UniProt P60520 1-117)", "T3 sequence (P60520 whole entry)": "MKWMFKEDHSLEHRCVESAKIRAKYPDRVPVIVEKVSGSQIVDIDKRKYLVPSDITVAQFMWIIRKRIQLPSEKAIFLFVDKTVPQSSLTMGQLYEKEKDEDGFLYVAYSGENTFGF", "assay": "ITC; peptide in the syringe (0.5 mM) titrated into 200 µl of the Atg8 homologue in the cell at a 10 times lower concentration; MicroCal iTC200, 25 °C, stirring at 1000 rpm; single-site binding model; N fixed to 1.0 when the fitting was not convergent due to weak interaction; errors are fitting errors", "conditions": "both partners purified"}, "[5]": {"target": "T4, LC3B WT (rat LC3B 1-120) (rat, UniProt Q62625 1-120)", "assay": "ITC; peptide in the syringe (0.5 mM) titrated into 200 µl of the Atg8 homologue in the cell at a 10 times lower concentration; MicroCal iTC200, 25 °C, stirring at 1000 rpm; single-site binding model; N fixed to 1.0 when the fitting was not convergent due to weak interaction; errors are fitting errors", "conditions": "both partners purified"}, "[6]": {"target": "T5, GABARAP WT (human GABARAP 1-116) (human, UniProt O95166 1-116)", "T5 sequence (O95166 1-116)": "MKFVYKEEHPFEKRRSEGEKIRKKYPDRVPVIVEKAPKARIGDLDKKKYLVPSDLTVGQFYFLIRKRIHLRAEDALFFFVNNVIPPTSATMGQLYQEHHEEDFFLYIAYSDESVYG", "assay": "ITC; peptide in the syringe (0.5 mM) titrated into 200 µl of the Atg8 homologue in the cell at a 10 times lower concentration; MicroCal iTC200, 25 °C, stirring at 1000 rpm; single-site binding model; N fixed to 1.0 when the fitting was not convergent due to weak interaction; errors are fitting errors", "conditions": "both partners purified"}, "[7]": {"target": "T1, LC3A WT", "assay": "ITC; peptide in the syringe (0.5 mM) titrated into 200 µl of the Atg8 homologue in the cell at a 10 times lower concentration; MicroCal iTC200, 25 °C, stirring at 1000 rpm; single-site binding model; N fixed to 1.0 when the fitting was not convergent due to weak interaction; errors are fitting errors", "conditions": "both partners purified", "remark": "listed apart in the source"}, "[8]": {"target": "T4, LC3B WT (rat LC3B 1-120)", "assay": "ITC; peptide in the syringe (0.5 mM) titrated into 200 µl of the Atg8 homologue in the cell at a 10 times lower concentration; MicroCal iTC200, 25 °C, stirring at 1000 rpm; single-site binding model; N fixed to 1.0 when the fitting was not convergent due to weak interaction; errors are fitting errors", "conditions": "both partners purified", "remark": "listed apart in the source"}, "[9]": {"target": "T5, GABARAP WT (human GABARAP 1-116)", "assay": "ITC; peptide in the syringe (0.5 mM) titrated into 200 µl of the Atg8 homologue in the cell at a 10 times lower concentration; MicroCal iTC200, 25 °C, stirring at 1000 rpm; single-site binding model; N fixed to 1.0 when the fitting was not convergent due to weak interaction; errors are fitting errors", "conditions": "both partners purified", "remark": "listed apart in the source"}, "[10]": {"target": "T2, GABARAPL1 WT", "assay": "ITC; peptide in the syringe (0.5 mM) titrated into 200 µl of the Atg8 homologue in the cell at a 10 times lower concentration; MicroCal iTC200, 25 °C, stirring at 1000 rpm; single-site binding model; N fixed to 1.0 when the fitting was not convergent due to weak interaction; errors are fitting errors", "conditions": "both partners purified", "remark": "listed apart in the source"}, "[11]": {"target": "T3, GABARAPL2 WT", "assay": "ITC; peptide in the syringe (0.5 mM) titrated into 200 µl of the Atg8 homologue in the cell at a 10 times lower concentration; MicroCal iTC200, 25 °C, stirring at 1000 rpm; single-site binding model; N fixed to 1.0 when the fitting was not convergent due to weak interaction; errors are fitting errors", "conditions": "both partners purified", "remark": "listed apart in the source"}, "[12]": {"target": "T6, Atg8 K26P (in the crystallised Atg40^237–252-Atg8 fusion) (S. cerevisiae, UniProt P38182 1-116, K26P)", "T6 construct": "Atg8, S. cerevisiae (ScAtg8), residues 1-116; K26P introduced for stabilizing Atg8; the GST of the fusion stood before m15 and was cleaved; source: E. coli BL21 (DE3), purified (GST-accept resin, HRV 3C protease, SEC), on one chain with m15", "T6 sequence (looked up)": "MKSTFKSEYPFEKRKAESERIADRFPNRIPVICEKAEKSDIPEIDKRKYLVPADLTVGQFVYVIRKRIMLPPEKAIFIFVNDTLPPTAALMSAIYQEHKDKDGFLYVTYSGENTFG", "assay": "crystal structure; the AIM sequence fused to the N terminus of Atg8 K26P or GABARAP F3S V4T on one chain; sitting-drop vapor diffusion at 20 °C; molecular replacement", "conditions": "both partners purified"}, "[13]": {"target": "T7, Atg8 (1-116) K26P (S. cerevisiae, UniProt P38182 1-116, K26P)", "T7 sequence (looked up)": "T6 sequence (looked up)", "assay": "ITC; MicroCal iTC200, 25 °C; peptide in the syringe (FAM134B, SEC62, RTN3 0.5 mM; Atg40^234–252 2.0 mM; Atg40^237–252 1.8 mM), Atg8-family protein in the cell at 10 times lower concentration (1.8 mM Atg8 for Atg40^237–252 D243A D247A); 20 mM HEPES pH 6.8, 150 mM NaCl; single-site model; errors are fitting errors", "conditions": "both partners purified"}, "[14]": {"target": "the molecule itself", "assay": "co-IP; two-step: anti-FLAG beads, elution with 3 x FLAG peptide, then GFP nanobody-conjugated beads, blot for Atg40-HA; wild-type cells; larger oligomers significantly decreased in atg1Δ, atg2Δ and atg8Δ cells"}, "[15]": {"target": "the molecule itself", "assay": "SEC-MALS; Atg40-6His solubilized in DDM; Superdex 200 increase 10/300 in 20 mM Tris-HCl pH 8.0, 150 mM NaCl, 0.03% DDM, room temperature"}},
  "data": [
    {"binder": "GPHSSGNGNDFEMITKEELEQQTDY", "note": "[SEC62355-376 WT peptide]", "values": [
      {"measurement": "Kd", "setting": "[1]", "result": 0.92, "unit": "µM"},
      {"measurement": "stoichiometry N", "setting": "[1]", "result": 0.78, "unit": "site"},
      {"measurement": "Kd", "setting": "[2]", "result": 5.18, "unit": "µM"},
      {"measurement": "stoichiometry N", "setting": "[2]", "result": 0.46, "unit": "site"},
      {"measurement": "Kd", "setting": "[3]", "result": 0.39, "unit": "µM"},
      {"measurement": "stoichiometry N", "setting": "[3]", "result": 0.83, "unit": "site"},
      {"measurement": "Kd", "setting": "[4]", "result": 0.58, "unit": "µM"},
      {"measurement": "stoichiometry N", "setting": "[4]", "result": 0.78, "unit": "site"},
      {"measurement": "Kd", "setting": "[5]", "result": 3.37, "unit": "µM"},
      {"measurement": "stoichiometry N", "setting": "[5]", "result": 0.74, "unit": "site"}
    ]},
    {"binder": "GPHSSGNGNDFEMATKEELEQQTDY", "note": "[SEC62355-376 I366A peptide]", "values": [
      {"measurement": "Kd", "setting": "[6]", "result": 14.5, "unit": "µM"},
      {"measurement": "stoichiometry N", "setting": "[6]", "result": 0.87, "unit": "site"}
    ]},
    {"binder": "B1", "values": [
      {"measurement": "Kd", "setting": "[7]", "result": 21.7, "unit": "µM"},
      {"measurement": "stoichiometry N", "setting": "[7]", "result": 0.54, "unit": "site"},
      {"measurement": "Kd", "setting": "[8]", "result": 31.1, "unit": "µM"},
      {"measurement": "stoichiometry N", "setting": "[8]", "result": 0.91, "unit": "site"},
      {"measurement": "Kd", "setting": "[9]", "result": 14, "unit": "µM"},
      {"measurement": "stoichiometry N", "setting": "[9]", "result": 0.82, "unit": "site"}
    ]},
    {"binder": "B2", "values": [
      {"measurement": "Kd", "setting": "[7]", "result": 17.2, "unit": "µM"},
      {"measurement": "stoichiometry N", "setting": "[7]", "result": 0.55, "unit": "site"},
      {"measurement": "Kd", "setting": "[8]", "result": 28.8, "unit": "µM"},
      {"measurement": "Kd", "setting": "[9]", "result": 5.03, "unit": "µM"},
      {"measurement": "stoichiometry N", "setting": "[9]", "result": 0.74, "unit": "site"},
      {"measurement": "Kd", "setting": "[10]", "result": 5, "unit": "µM"},
      {"measurement": "stoichiometry N", "setting": "[10]", "result": 0.81, "unit": "site"},
      {"measurement": "Kd", "setting": "[11]", "result": 17.4, "unit": "µM"},
      {"measurement": "stoichiometry N", "setting": "[11]", "result": 0.51, "unit": "site"}
    ]},
    {"binder": "EFPNDYDFMEDILDET (domain or fragment, S. cerevisiae, UniProt Q99325 237-252, looked up)", "note": "[Atg40^237–252 (in the crystallised Atg40^237–252-Atg8 fusion)]", "values": [
      {"measurement": "binding result", "setting": "[12]", "result": "binds"}
    ]},
    {"binder": "B3", "values": [
      {"measurement": "Kd", "setting": "[13]", "result": 590, "unit": "nM"}
    ]},
    {"binder": "B4", "values": [
      {"measurement": "Kd", "setting": "[1]", "result": 54.6, "unit": "µM"},
      {"measurement": "stoichiometry N", "setting": "[1]", "result": 0.98, "unit": "site"},
      {"measurement": "Kd", "setting": "[2]", "result": 31.9, "unit": "µM"},
      {"measurement": "Kd", "setting": "[3]", "result": 13.3, "unit": "µM"},
      {"measurement": "stoichiometry N", "setting": "[3]", "result": 0.99, "unit": "site"},
      {"measurement": "Kd", "setting": "[4]", "result": 90.9, "unit": "µM"}
    ]},
    {"binder": "B5", "values": [
      {"measurement": "stoichiometry N", "setting": "[14]", "result": "> 2"}
    ]},
    {"binder": "B6", "values": [
      {"measurement": "stoichiometry N", "setting": "[15]", "result": 2}
    ]}
  ]
}
